Measurements taken from article PMC8872419.

Target: mutated SMN1 protein with T274YfsX32, myc-tagged (exogenous) (human) (UniProt Q16637)
Experiment: co-IP; lysate (1 mg) of HeLa cells 24 h after transfection, RIPA buffer without SDS; anti-myc-tag antibody on Dynabeads Protein A; washed three times; blots with anti-myc-tag and anti-SMN antibodies; band ratio End-SMN/Exo-SMN, in triplicate

ratio of End-SMN to Exo-SMN: 0.02
ratio of End-SMN/Exo-SMN, percent of wild type: 4%
Substance: endogenous FL-SMN1 and/or FL-SMN2 protein (endogenous SMN protein) (from UniProt Q16637 1-294) (natural protein)
